Measured values: patent US20060293243A1, “Stable, buffered, pharmaceutical compositions including motilin-like peptides” (priority 2005, published 2006)
Non-standard residues stand in square brackets, D forms with d. Me3N+ = N-terminal trimethylammonium

Assays:
Type in all cases: physicochemical
[1] = Stability of lyophilized formulations of motilin-like peptide compositions (HPLC after reconstitution in water); details: 30 μg/ml in 10 mM citrate buffer, 1% w/v sucrose, pH 6.0, stored in 20 ml vial at 40° C. for several months, reconstituted in water
Protocol: The motilin-like peptide including SEQ ID NO.: 1 was dissolved at a concentration of 30 μg/ml in 10 mM citrate buffer and 1% w/v of sucrose (bulking agent) at pH 6.0. The composition was lyophilized by standard techniques and stored in a 20 ml vial at 40° C. The potency of the motilin-like peptide was measured at the time intervals indicated in FIG. 5, by reconstituting the composition in water. Potency was determined by using HPLC to measure the amount of undegraded peptide remaining in each sample. […] Again, it will be appreciated by those skilled in the art that the stability of pharmaceutical compositions at elevated temperatures, such as 40° C. as in FIG. 5, may serve as the basis of prediction of stability for longer periods at more typical storage temperatures, such as approximately 20° C.-25° C. or 4° C.-8° C., for example.

[2] = Stability profile of aqueous composition stored in Schott Type 1 glass vials (FIGS. 3 and 4); details: Schott Type 1 vials
From the text: Some plastics have also proven to be effective in assisting in the stabilization of the peptide composition. In this regard, preferred plastics are cyclic olefin copolymers, available, for example, from West Pharmaceuticals under the product name CZ resin vials, or from Schott under the product name TopPac vials, or from Alcan packaging under the product name Ticona Topas serum vials. The compositions of the present invention may also be stored in PVC, as well as non-PVC flexible bags. When stored in the above described glass or plastic containers, the above-described storage times at the above-described storage temperatures can be achieved, although for storage periods of at least 18 months, Type I Plus (vapor treated silicon) vials and Type I Plus glass ampules are preferred. […] It will be appreciated by those skilled in the art that the measured stability of pharmaceutical compositions at elevated temperatures, such as 40° C. or higher, may serve as the basis of prediction of stability for longer periods at more typical storage temperatures, such as 20°-25° C. or 4°-8° C., for example. Such “accelerated storage” studies are common in the field of the present invention.

[3] = Degradation during storage as a function of composition pH; details: pH approximately 3 to 9, most preferably approximately 4.8-5.2
Protocol: In one embodiment, where the composition is provided in a “ready-to-use” form, the motilin-like peptide is dissolved in a buffer solution to provide an aqueous composition. […] More preferably, the pH of the pharmaceutical compositions is between approximately 4 and 6, more preferably 4.5 and 5.5 and, most preferably, between approximately 4.8-5.2. At these pH levels, the peptide of SEQ. ID. […] (The preferred pH of the composition may also be determined, in part, based on whether the composition is prepared as an aqueous composition or a lyophilized formulation, discussed below.)

[4] = Stability of motilin-like peptide following autoclaving and storage (HPLC, undegraded peptide remaining); details: 30 μg/ml in 10 mM sodium acetate buffer, pH 5.0; Type I glass vials; autoclaved at 121° C. for 15 minutes; storage for 3 months at 55° C.
Protocol: The motilin-like peptide of SEQ ID NO.: 1 was dissolved at a concentration of 30 μg/ml in 10 mM sodium acetate buffer, pH 5.0. Samples of the peptide solution stored in Type I glass vials were autoclaved at 121° C. for 15 minutes and the autoclaved samples were incubated at 5° C., 25° C., 40° C., or 55° C. The potency of the peptide following storage at each temperature was measured over time by testing samples after incubation of one week, two weeks, three weeks, one month and three months. Potency was determined by using HPLC to measure the amount of undegraded peptide remaining in each sample.
It will be appreciated by those skilled in the art that stability data obtained at such elevated temperatures (i.e., accelerated storage conditions) may be used to predict stability at lower, more typical storage temperatures over extended periods of time.

## (Me3N) ^+Phe-Val-Pro-Ile-Phe-Thr-Tyr-Gly-Glu-Leu-Gln-D-Arg-Leu-Lys-NH2 ({Me3N+}-FVPIFTYGELQ[dR]LK-NH2) [SEQ ID NO.: 1, synthetic motilin-like peptide receptor agonist]
[1]
  potency retained (amount of undegraded peptide remaining by HPLC): greater than 90%
[2]; 30 μg/ml, several months at 5° C. to 55° C. (FIG. 4)
  stability (maintenance of high levels of potency): demonstrated stability
[2]; approximately 5 μg/ml, several months at 5° C. to 55° C. (FIG. 3)
  stability (maintenance of high levels of potency): demonstrated stability
[3]
  degradation during storage: only minimal degradation
[4]
  potency retained (amount of undegraded peptide remaining by HPLC): greater than 90%
